The target of experiment [1] is Recombinant FAM19A5 rabbit Fc fusion protein (human; rabbit) (UniProt Q7Z5A7). In words: flow cytometry, blocking: FAM19A5-rFc (1 µM) with scFv-Cκ (5 µM) on mouse primary glial cells; blocked: binding of FAM19A5-rFc to the cells.
For experiment [2] the target is unchanged. In words: flow cytometry, blocking: FAM19A5-rFc (1 µM) with scFv-Cκ (5 µM) on human glioblastoma cell line U87MG; blocked: binding of FAM19A5-rFc to the cells.

B1: 2-13 anti-FAM19A5 scFv human Cκ fusion protein (scFv, not shown: a dimerising Fc or GST)
scFv: ALTQPSSVSANPGETVKITCSGGSYSYGWFQQKSPGSALVTVIYWDDERPSDIPSRFSGALSGSTNTLTITGVQADDEAVYFCGTEDISGTAGVFGAGTTLTVLGQSSRSSGGGGSSGGGGSAVTLDESGGGLQTPGGALSLVCKASGFTFSSHGMFWVRQTPGKGLEYVAEITNDGSGTNYGSAVKGRATISRDNGQSTVRLQLNNLRAEDTGTYFCARSTYECPGGFSCWGDTGQIDAWGHGTEVIVSS
Regarding B1, the results for the percent reduction of MFI in experiment [1] and in experiment [2] were 88.9% and 69.6%, respectively.
